In patent EP1900816A2:
Each block holds one molecule with its values, some of them ahead of it.

Assays:
[1] = molecular target: B7-1 on the surface of mouse cells (WEHI 231, undifferentiated ES cells) (mouse) (UniProt Q00609); assay: flow cytometry, titration on WEHI 231 cells, which carry both B7-1 and B7-2
[2] = molecular target: T1, B7-2 on the surface of WEHI 231 cells (mouse) (UniProt P42082); assay: as above
T1 sequence (looked up): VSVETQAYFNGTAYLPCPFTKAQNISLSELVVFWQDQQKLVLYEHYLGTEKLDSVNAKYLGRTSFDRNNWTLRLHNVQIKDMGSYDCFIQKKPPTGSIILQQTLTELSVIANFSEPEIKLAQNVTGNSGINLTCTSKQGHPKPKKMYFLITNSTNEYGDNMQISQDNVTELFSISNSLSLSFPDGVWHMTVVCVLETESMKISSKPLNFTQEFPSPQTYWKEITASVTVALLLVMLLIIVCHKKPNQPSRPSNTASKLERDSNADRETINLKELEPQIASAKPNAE

[3] = molecular target: ICOS-ligand (GL50) on the surface of mouse cells (WEHI 231, undifferentiated ES cells, splenocytes) (mouse) (UniProt Q9JHJ8); assay: two-colour flow cytometry, Balb/C splenocytes, cells stained by anti CD69
Sequence of UniProt Q9JHJ8 (Q9JHJ8 44-322): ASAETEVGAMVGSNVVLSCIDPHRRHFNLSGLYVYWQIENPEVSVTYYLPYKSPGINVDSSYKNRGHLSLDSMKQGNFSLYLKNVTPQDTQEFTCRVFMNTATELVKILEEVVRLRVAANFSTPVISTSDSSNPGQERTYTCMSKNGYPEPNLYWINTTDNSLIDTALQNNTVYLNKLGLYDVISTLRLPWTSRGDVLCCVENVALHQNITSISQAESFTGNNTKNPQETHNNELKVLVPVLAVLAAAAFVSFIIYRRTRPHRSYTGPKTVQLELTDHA

[4] = molecular target: ICOS-ligand (GL50) on the surface of mouse cells (WEHI 231, undifferentiated ES cells, splenocytes) (mouse) (UniProt Q9JHJ8); assay: two-colour flow cytometry, Balb/C splenocytes, cells stained by anti-pan NK
[5] = molecular target: ICOS-ligand (GL50) on the surface of mouse cells (WEHI 231, undifferentiated ES cells, splenocytes) (mouse) (UniProt Q9JHJ8); assay: two-colour flow cytometry, RAG1-/- splenocytes, cells stained by anti-CD4
[6] = molecular target: ICOS-ligand (GL50) on the surface of mouse cells (WEHI 231, undifferentiated ES cells, splenocytes) (mouse) (UniProt Q9JHJ8); assay: two-colour flow cytometry, Balb/C splenocytes, cells stained by anti-CD8a
[7] = molecular target: ICOS-ligand (GL50) on the surface of mouse cells (WEHI 231, undifferentiated ES cells, splenocytes) (mouse) (UniProt Q9JHJ8); assay: two-colour flow cytometry, Balb/C splenocytes, cells stained by anti-CD24
[8] = molecular target: ICOS-ligand (GL50) on the surface of mouse cells (WEHI 231, undifferentiated ES cells, splenocytes) (mouse) (UniProt Q9JHJ8); assay: two-colour flow cytometry, Balb/C splenocytes, cells stained by anti-CD11C
[9] = molecular target: ICOS-ligand (GL50) on the surface of mouse cells (WEHI 231, undifferentiated ES cells, splenocytes) (mouse) (UniProt Q9JHJ8); assay: two-colour flow cytometry, Balb/C splenocytes, cells stained by anti-CD45R/B220
[10] = molecular target: ICOS-ligand (GL50) on the surface of mouse cells (WEHI 231, undifferentiated ES cells, splenocytes) (mouse) (UniProt Q9JHJ8); assay: two-colour flow cytometry, RAG1-/- splenocytes, cells stained by anti-CD11C
[11] = molecular target: ICOS-ligand (GL50) on the surface of mouse cells (WEHI 231, undifferentiated ES cells, splenocytes) (mouse) (UniProt Q9JHJ8); assay: two-colour flow cytometry, Balb/C splenocytes, cells stained by anti-CD4
[12] = molecular target: ICOS-ligand (GL50) on the surface of mouse cells (WEHI 231, undifferentiated ES cells, splenocytes) (mouse) (UniProt Q9JHJ8); assay: two-colour flow cytometry, RAG1-/- splenocytes, cells stained by anti-CD24
[13] = molecular target: ICOS-ligand (GL50) on the surface of mouse cells (WEHI 231, undifferentiated ES cells, splenocytes) (mouse) (UniProt Q9JHJ8); assay: two-colour flow cytometry, Balb/C splenocytes, cells stained by anti-CD11B
[14] = molecular target: ICOS-ligand (GL50) on the surface of mouse cells (WEHI 231, undifferentiated ES cells, splenocytes) (mouse) (UniProt Q9JHJ8); assay: two-colour flow cytometry, Balb/C splenocytes, cells stained by anti CD40
[15] = molecular target: ICOS-ligand (GL50) on the surface of mouse cells (WEHI 231, undifferentiated ES cells, splenocytes) (mouse) (UniProt Q9JHJ8); assay: two-colour flow cytometry, RAG1-/- splenocytes, cells stained by anti-pan NK
[16] = molecular target: ICOS-ligand (GL50) on the surface of mouse cells (WEHI 231, undifferentiated ES cells, splenocytes) (mouse) (UniProt Q9JHJ8); assay: two-colour flow cytometry, RAG1-/- splenocytes, cells stained by anti-CD45R/B220
[17] = molecular target: ICOS-ligand (GL50) on the surface of mouse cells (WEHI 231, undifferentiated ES cells, splenocytes) (mouse) (UniProt Q9JHJ8); assay: flow cytometry, indirect staining of undifferentiated CCE ES cells
[18] = molecular target: ICOS-ligand (GL50) on the surface of mouse cells (WEHI 231, undifferentiated ES cells, splenocytes) (mouse) (UniProt Q9JHJ8); assay: two-colour flow cytometry, Balb/C splenocytes, cells stained by anti-CD19
[19] = molecular target: ICOS-ligand (GL50) on the surface of mouse cells (WEHI 231, undifferentiated ES cells, splenocytes) (mouse) (UniProt Q9JHJ8); assay: two-colour flow cytometry, Balb/C splenocytes, cells stained by anti class II
[20] = molecular target: ICOS-ligand (GL50) on the surface of mouse cells (WEHI 231, undifferentiated ES cells, splenocytes) (mouse) (UniProt Q9JHJ8); assay: two-colour flow cytometry, RAG1-/- splenocytes, cells stained by anti CD69
[21] = molecular target: ICOS-ligand (GL50) on the surface of mouse cells (WEHI 231, undifferentiated ES cells, splenocytes) (mouse) (UniProt Q9JHJ8); assay: two-colour flow cytometry, RAG1-/- splenocytes, cells stained by anti-CD11B
[22] = molecular target: ICOS-ligand (GL50) on the surface of mouse cells (WEHI 231, undifferentiated ES cells, splenocytes) (mouse) (UniProt Q9JHJ8); assay: two-colour flow cytometry, Balb/C splenocytes, cells stained by anti-CD3
[23] = molecular target: ICOS-ligand (GL50) on the surface of mouse cells (WEHI 231, undifferentiated ES cells, splenocytes) (mouse) (UniProt Q9JHJ8); assay: flow cytometry, titration on WEHI 231 cells
[24] = molecular target: ICOS-ligand (GL50) on the surface of mouse cells (WEHI 231, undifferentiated ES cells, splenocytes) (mouse) (UniProt Q9JHJ8); assay: two-colour flow cytometry, RAG1-/- splenocytes, cells stained by anti class II

Sequence of UniProt Q00609 (Q00609 38-306): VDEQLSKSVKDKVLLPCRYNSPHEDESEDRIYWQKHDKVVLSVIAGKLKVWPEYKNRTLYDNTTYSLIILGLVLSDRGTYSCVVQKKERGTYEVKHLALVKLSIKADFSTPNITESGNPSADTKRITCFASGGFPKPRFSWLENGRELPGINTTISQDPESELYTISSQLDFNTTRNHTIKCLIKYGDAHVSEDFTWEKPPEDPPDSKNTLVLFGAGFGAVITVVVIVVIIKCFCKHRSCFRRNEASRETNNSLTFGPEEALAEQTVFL

- concentration at which staining was clearly detectable [1]: 8 ng/mL
- fold binding affinity against mICOS-mIgG2am binding to GL50 on WEHI cells [1]: > 100 fold
- concentration at which staining was clearly detectable [2]: 8 ng/mL
- fold binding affinity against mICOS-mIgG2am binding to GL50 on WEHI cells [2]: > 100 fold
Molecule: mCTLA4-mIgG2am fusion protein (from UniProt P09793 36-161) (Fc fusion)

- % ICOS-lg positive [3]: 25%
- % ICOS-lg positive [4]: 20%
- % ICOS-lg positive [5]: 45%
- % ICOS-lg positive [6]: 10%
- % ICOS-lg positive [7]: 94%
- % ICOS-lg positive [8]: 43%
- % ICOS-lg positive [9]: 97%
- % ICOS-lg positive [10]: 55%
- % ICOS-lg positive [11]: 8%
- % ICOS-lg positive [12]: 28%
- % ICOS-lg positive [13]: 26%
- % ICOS-lg positive [14]: 97%
- % ICOS-lg positive [15]: 3%
- % ICOS-lg positive [16]: 5%
- fluorescence shift over background [17]: 0.5 log
- % ICOS-lg positive [18]: 97%
- % ICOS-lg positive [19]: 95%
- % ICOS-lg positive [20]: 5%
- % ICOS-lg positive [21]: 31%
- % ICOS-lg positive [22]: 10%
- concentration from which staining was minimally detectable [23]: 1 µg/mL
- % ICOS-lg positive [24]: 3%
B1: mICOS-mIgG2am fusion protein (Fc fusion)
chain: EINGSADHRMFSFHNGGVQISCKYPETVQQLKMRLFREREVLCELTKTKGSGNAVSIKNPMLCLYHLSNNSVSFFLNNPDSSQGSYYFCSLSIFDPPPFQERNLSGGYLHIYESQLCCQLKLEPRGPTIKPCPPCKCPAPNLEGGPSVFIFPPKIKDVLMISLSPIVTCVVVDVSEDDPDVQISWFVNNVEVHTAQTQTHREDYNSTLRVVSALPIQHQDWMSGKAFACAVNNKDLPAPIERTISKPKGSVRAPQVYVLPPPEEEMTKKQVTLTCMVTDFMPEDIYVEWTNNGKTELNYKNTEPVLDSDGSYFMYSKLRVEKKNWVERNSYSCSVVHEGLHNHHTTKSFSRTPGK
